Laboratory results reported in publication PMC10502012.

B1: sybody 27 (VHH)
VHH: QVQLVESGGGSVQAGGSLRLSCAASGDIETIWYLGWFRQAPGKEREGVAALSTVTGSTYYADSVKGRFTVSLDNAKNTVYLQMNSLKPEDTALYYCAAAYTGWMAPLWQWVYSYWGQGTQVTVSA

These binders were tested against chicken PHT1 (purified, wild type) (assay: thermal stability (thermal shift) of PHT1 with TASL peptides). Conditions: chain shown with the change; peptide concentration 50 µM; parent: est. 13.6; read off a plot.
Sequence of chicken PHT1 (purified, wild type) (chain, as listed by the source): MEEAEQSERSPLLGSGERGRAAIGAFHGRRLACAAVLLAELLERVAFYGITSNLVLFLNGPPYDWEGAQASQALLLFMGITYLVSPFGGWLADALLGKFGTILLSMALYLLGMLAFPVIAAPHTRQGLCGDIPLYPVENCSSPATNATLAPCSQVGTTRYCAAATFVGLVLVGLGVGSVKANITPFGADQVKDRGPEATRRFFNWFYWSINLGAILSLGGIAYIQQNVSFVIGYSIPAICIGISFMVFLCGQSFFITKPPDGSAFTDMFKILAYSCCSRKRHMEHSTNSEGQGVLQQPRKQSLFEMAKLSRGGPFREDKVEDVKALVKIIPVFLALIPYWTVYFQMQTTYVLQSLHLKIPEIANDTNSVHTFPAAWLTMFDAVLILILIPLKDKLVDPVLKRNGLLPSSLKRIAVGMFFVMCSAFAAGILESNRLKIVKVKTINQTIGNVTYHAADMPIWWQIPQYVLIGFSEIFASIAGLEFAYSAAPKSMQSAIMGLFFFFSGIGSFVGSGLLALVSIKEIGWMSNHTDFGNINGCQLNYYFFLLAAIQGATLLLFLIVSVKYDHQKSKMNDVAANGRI

Row | other: ΔTm [Kelvin] | Binder
1 | 6.9 | MLSEGYLYAIAYL [TASL_(1-13) peptide R9A]
2 | 11 | MLSEGALYRIAYL [TASL_(1-13) peptide Y6A]
3 | 13 | MLSEGYAYRIAYL [TASL_(1-13) peptide L7A]
4 | 9.9 | MLSEGYLARIAYL [TASL_(1-13) peptide Y8A]
5 | 5.1 | ALSEGYLYRIAYL [TASL_(1-13) peptide M1A]
6 | 13 | MLAEGYLYRIAYL [TASL_(1-13) peptide S3A]
7 | 5.6 | MASEGYLYRIAYL [TASL_(1-13) peptide L2A]
8 | 0.45 | MLSAGYLYRIAYL [TASL_(1-13) peptide E4A]

Same assay, conditions: chain shown with the change; peptide concentration 50 µM; read off a plot

Row | other: ΔTm [Kelvin] | Binder
9 | 15 | MLSEGYLYRIAYLA [TASL peptide with a length of 14 residues C14A]

These binders were tested against biotinylated chicken PHT1 (BLI sample) (chicken) (assay: BLI; biotinylated PHT1 on streptavidin biosensors; Sb27 6-800 nM; 22 °C; 50 mM HEPES pH 7.5, 100 mM NaCl, 0.02% DDM/0.004% CHS, 0.5% BSA; 1:1 binding model). Conditions: not given.
Sequence of biotinylated chicken PHT1 (BLI sample) (chicken) (A6QQL0 other isoform, or with tags, fused parts or gaps): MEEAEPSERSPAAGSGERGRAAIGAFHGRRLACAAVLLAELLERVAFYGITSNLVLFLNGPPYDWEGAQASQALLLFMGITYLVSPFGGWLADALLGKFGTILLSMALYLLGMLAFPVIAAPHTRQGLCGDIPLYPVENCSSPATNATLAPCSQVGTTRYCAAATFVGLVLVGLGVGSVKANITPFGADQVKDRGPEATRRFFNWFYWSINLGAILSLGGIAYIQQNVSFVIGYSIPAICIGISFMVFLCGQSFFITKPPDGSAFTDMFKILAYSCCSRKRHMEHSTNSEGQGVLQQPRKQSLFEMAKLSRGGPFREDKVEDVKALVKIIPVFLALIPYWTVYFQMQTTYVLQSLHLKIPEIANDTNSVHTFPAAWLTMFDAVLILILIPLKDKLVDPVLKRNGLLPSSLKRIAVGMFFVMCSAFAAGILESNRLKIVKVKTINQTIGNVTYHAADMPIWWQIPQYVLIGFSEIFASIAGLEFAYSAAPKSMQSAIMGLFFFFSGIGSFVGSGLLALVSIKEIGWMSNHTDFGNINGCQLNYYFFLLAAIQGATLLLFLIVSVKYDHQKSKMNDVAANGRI

Row | Kd [nM] | Binder
10 | 400 | B1
